The source of these data is PMC7360973 (2020).

Ends that are not written are not given here.

The assay has as its target Human Hsc70 (HSPA8) (human, UniProt P11142 1-646). Description: FP.

Human Hsc70 (HSPA8), sequence (P11142 whole entry): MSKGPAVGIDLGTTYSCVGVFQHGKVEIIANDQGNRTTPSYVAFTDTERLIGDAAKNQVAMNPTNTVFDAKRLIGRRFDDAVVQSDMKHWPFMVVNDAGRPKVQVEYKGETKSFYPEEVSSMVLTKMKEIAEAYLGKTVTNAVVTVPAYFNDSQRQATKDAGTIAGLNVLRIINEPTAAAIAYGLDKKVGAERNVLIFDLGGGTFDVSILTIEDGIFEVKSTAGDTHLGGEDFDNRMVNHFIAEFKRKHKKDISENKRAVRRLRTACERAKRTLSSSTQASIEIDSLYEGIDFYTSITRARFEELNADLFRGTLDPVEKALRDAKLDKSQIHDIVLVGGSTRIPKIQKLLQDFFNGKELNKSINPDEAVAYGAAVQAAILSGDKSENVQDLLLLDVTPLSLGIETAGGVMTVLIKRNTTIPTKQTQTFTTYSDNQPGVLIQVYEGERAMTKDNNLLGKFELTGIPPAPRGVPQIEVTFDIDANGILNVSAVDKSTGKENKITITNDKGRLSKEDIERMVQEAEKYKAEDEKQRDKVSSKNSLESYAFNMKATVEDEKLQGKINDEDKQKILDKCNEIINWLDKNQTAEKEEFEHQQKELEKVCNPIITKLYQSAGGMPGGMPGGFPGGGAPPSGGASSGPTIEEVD

By Kd is commonly meant the equilibrium constant for the complex coming apart. Lower therefore signals a tighter complex. Turning to GVKRKSPSMSNC(fluorescein‑5‑maleimide) [Hsf1 peptide G204‐N214‐C_SSS], the Kd was greater than 60 µM.
To NMYGFRKVVHIEQC(fluorescein‑5‑maleimide) [Hsf1 peptide N74‐Q86‐C] belongs greater than 60 µM; to PKYSRQFSLEHVHC(fluorescein‑5‑maleimide) [Hsf1 peptide P223‐H235‐C], greater than 60 µM.
For the molecule NRSSGSKRKC(fluorescein‑5‑maleimide) [Hsf1 peptide N200‐K208‐C_SSS], the dissociation constant (Kd) was greater than 60 µM.
